Laboratory results: article PMC5334656, “McMYB12 Transcription Factors Co-regulate Proanthocyanidin and Anthocyanin Biosynthesis in Malus Crabapple”

T1: McMYB12b (Malus crabapple, UniProt X2EZI4 1-374)
T1 sequence: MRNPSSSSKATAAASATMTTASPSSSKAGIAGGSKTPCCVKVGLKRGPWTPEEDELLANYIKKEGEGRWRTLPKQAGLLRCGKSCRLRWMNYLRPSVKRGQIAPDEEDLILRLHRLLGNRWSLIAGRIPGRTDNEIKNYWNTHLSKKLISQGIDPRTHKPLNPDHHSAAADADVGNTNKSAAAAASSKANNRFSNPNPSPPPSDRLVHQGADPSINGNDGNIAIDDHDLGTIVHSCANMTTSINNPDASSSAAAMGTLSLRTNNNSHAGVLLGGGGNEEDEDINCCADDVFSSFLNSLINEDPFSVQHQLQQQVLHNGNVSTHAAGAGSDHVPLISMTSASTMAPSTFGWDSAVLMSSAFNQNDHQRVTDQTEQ

T2: McMYB12a (Malus crabapple, UniProt X2EXK4 1-364)
T2 sequence: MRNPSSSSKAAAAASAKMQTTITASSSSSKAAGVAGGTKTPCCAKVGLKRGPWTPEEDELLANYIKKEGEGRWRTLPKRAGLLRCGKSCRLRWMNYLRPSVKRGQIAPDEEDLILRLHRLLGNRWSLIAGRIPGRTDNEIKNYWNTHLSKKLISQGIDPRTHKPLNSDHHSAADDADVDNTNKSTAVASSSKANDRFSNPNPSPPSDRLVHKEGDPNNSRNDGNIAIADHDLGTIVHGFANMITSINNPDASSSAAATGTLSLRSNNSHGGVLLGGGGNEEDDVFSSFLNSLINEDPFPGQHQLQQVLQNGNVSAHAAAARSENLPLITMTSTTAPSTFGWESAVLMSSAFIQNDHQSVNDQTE

B1: proMcLAR2 probe (dsDNA)
DNA 1: AAGTATGGTATAAACACAGACTAAGCCTCATTATCATATCCATATCAT
DNA 2: ATGATATGGATATGATAATGAGGCTTAGTCTGTGTTTATACCATACTT
B2: proMcANS probe (dsDNA)
DNA 1: AGATCATTGCTCCAACTGGCTAAAATTAAGTGACCATTACTATAAT
DNA 2: ATTATAGTAATGGTCACTTAATTTTAGCCAGTTGGAGCAATGATCT
B3: proMcANR1 probe (dsDNA)
DNA 1: ATTCTGAGTACTGTAACCTAAGTTGAAGTTGAATAATTGACGTCGTC
DNA 2: GACGACGTCAATTATTCAACTTCAACTTAGGTTACAGTACTCAGAAT
B4: proMcLAR1 probe (dsDNA)
DNA 1: GGACAGAAATTATCCATACACCCTTTTCGTTAATGTTGCAAACTGAGT
DNA 2: ACTCAGTTTGCAACATTAACGAAAAGGGTGTATGGATAATTTCTGTCC
B5: proMcANR2 probe (dsDNA)
DNA 1: ATTGGGAGATATGTGCTCGTTTTAGAGTGCTTTTAAAATAACTGAAAAC
DNA 2: GTTTTCAGTTATTTTAAAAGCACTCTAAAACGAGCACATATCTCCCAAT
B6: proMcCHS probe (dsDNA)
DNA 1: GCAACTCCTCCCAACTGTGTGGATCAAGCCACATACCCCGACTATTACT
DNA 2: AGTAATAGTCGGGGTATGTGGCTTGATCCACACAGTTGGGAGGAGTTGC

The binders below were run against T1, McMYB12b (assay: EMSA; LightShift Chemiluminescent EMSA Kit per manufacturer; 10 ug protein, 25 pmol biotin probe, 10- to 1000-fold competitor; buffer, salt, pH and temperature not stated). Details: protein: recombinant; label: biotin; blunt.
B1: binds. B2: binds. B3: binds. B4: binds. B5: binds.

The binders below were run against T2, McMYB12a in the same assay as above. Details: protein: recombinant; label: biotin; blunt.
B6: binds. B1: binds. B2: binds. B3: binds. B4: no binding. B5: binds.
